These results are taken from publication PMC3101288.

One may read the stoichiometry N as the number of molecules, sites or subunits per partner or assembly.

The target of the assay is HlmI (thioredoxin-disulfide oxidoreductase-like dithiol oxidase of the holomycin gene cluster) (Streptomyces clavuligerus). Description: SEC. For orientation: Size exclusion chromatography separates by hydrodynamic size, large species first.

“HlmI (thioredoxin-disulfide oxidoreductase-like dithiol oxidase of the holomycin gene cluster) (enzyme)” came in with a stoichiometry N of 2.
